# Laboratory results from the Human Domainome abundance scans (Beltran et al. 2025).
# ± gives the uncertainty stated by the source.
# B1: Ras GTPase-activating protein 1, residues 281 to 341; numbered along this chain, P20936 (parent)
# chain: RRRVRAILPYTKVPDTDEISFLKGDMFIVHNELEDGWMWVTNLRTDEQGLIVEDLVEEVGR
# Variants of: B1
# Assay: abundance fitness (aPCA) (normalised: wild type 0, dead -1); higher = more abundant; growth selection in yeast, the domain comes from the species named
# Settings: Homo sapiens
row,Variant,abundance fitness
1,RRRVRAILPYTKVPDTREISFLKGDMFIVHNELEDGWMWVTNLRTDEQGLIVEDLVEEVGR,0.005 ± 0.03
2,RRRVRAILPYTKVPDTSEISFLKGDMFIVHNELEDGWMWVTNLRTDEQGLIVEDLVEEVGR,-0.049 ± 0.024
3,RRRVRAILPYTKVPDTWEISFLKGDMFIVHNELEDGWMWVTNLRTDEQGLIVEDLVEEVGR,-0.136 ± 0.051
4,RRRVRAILPYTKVPDTYEISFLKGDMFIVHNELEDGWMWVTNLRTDEQGLIVEDLVEEVGR,-0.084 ± 0.026
5,RRRVRAILPYTKVPDTDECSFLKGDMFIVHNELEDGWMWVTNLRTDEQGLIVEDLVEEVGR,-0.451 ± 0.028
6,RRRVRAILPYTKVPDTDEMSFLKGDMFIVHNELEDGWMWVTNLRTDEQGLIVEDLVEEVGR,-0.316 ± 0.048
7,RRRVRAILPYTKVPDTDERSFLKGDMFIVHNELEDGWMWVTNLRTDEQGLIVEDLVEEVGR,-0.833 ± 0.05
8,RRRVRAILPYTKVPDTDEKSFLKGDMFIVHNELEDGWMWVTNLRTDEQGLIVEDLVEEVGR,-0.934 ± 0.13
9,RRRVRAILPYTKVPDTDEESFLKGDMFIVHNELEDGWMWVTNLRTDEQGLIVEDLVEEVGR,-0.881 ± 0.14
10,RRRVRAILPYTKVPDTDESSFLKGDMFIVHNELEDGWMWVTNLRTDEQGLIVEDLVEEVGR,-0.878 ± 0.042
11,RRRVRAILPYTKVPDTDENSFLKGDMFIVHNELEDGWMWVTNLRTDEQGLIVEDLVEEVGR,-1.03 ± 0.069
12,RRRVRAILPYTKVPDTDEDSFLKGDMFIVHNELEDGWMWVTNLRTDEQGLIVEDLVEEVGR,-0.941 ± 0.063
13,RRRVRAILPYTKVPDTDEYSFLKGDMFIVHNELEDGWMWVTNLRTDEQGLIVEDLVEEVGR,-0.86 ± 0.043
14,RRRVRAILPYTKVPDTDEASFLKGDMFIVHNELEDGWMWVTNLRTDEQGLIVEDLVEEVGR,-1.14 ± 0.12
15,RRRVRAILPYTKVPDTDELSFLKGDMFIVHNELEDGWMWVTNLRTDEQGLIVEDLVEEVGR,-0.004 ± 0.03
16,RRRVRAILPYTKVPDTDEQSFLKGDMFIVHNELEDGWMWVTNLRTDEQGLIVEDLVEEVGR,-1.16 ± 0.23
17,RRRVRAILPYTKVPDTDEWSFLKGDMFIVHNELEDGWMWVTNLRTDEQGLIVEDLVEEVGR,-1.04 ± 0.12
18,RRRVRAILPYTKVPDTDEPSFLKGDMFIVHNELEDGWMWVTNLRTDEQGLIVEDLVEEVGR,-0.989 ± 0.11
19,RRRVRAILPYTKVPDTDEFSFLKGDMFIVHNELEDGWMWVTNLRTDEQGLIVEDLVEEVGR,-0.943 ± 0.061
20,RRRVRAILPYTKVPDTDEISFRKGDMFIVHNELEDGWMWVTNLRTDEQGLIVEDLVEEVGR,-0.045 ± 0.032
21,RRRVRAILPYTKVPDTDEISFNKGDMFIVHNELEDGWMWVTNLRTDEQGLIVEDLVEEVGR,-0.013 ± 0.034
22,RRRVRAILPYTKVPDTDEISFFKGDMFIVHNELEDGWMWVTNLRTDEQGLIVEDLVEEVGR,-0.145 ± 0.029

row,Variant,abundance fitness
1,RRRVRAILPYTKVPDTDEISFKKGDMFIVHNELEDGWMWVTNLRTDEQGLIVEDLVEEVGR,-0.07 ± 0.073
2,RRRVRAILPYTKVPDTDEISFDKGDMFIVHNELEDGWMWVTNLRTDEQGLIVEDLVEEVGR,-0.045 ± 0.045
3,RRRVRAILPYTKVPDTDEISFTKGDMFIVHNELEDGWMWVTNLRTDEQGLIVEDLVEEVGR,-0.153 ± 0.039
4,RRRVRAILPYTKVPDTDEISFVKGDMFIVHNELEDGWMWVTNLRTDEQGLIVEDLVEEVGR,-0.038 ± 0.035
5,RRRVRAILPYTKVPDTDEISFHKGDMFIVHNELEDGWMWVTNLRTDEQGLIVEDLVEEVGR,-0.013 ± 0.041
6,RRRVRAILPYTKVPDTDEISFCKGDMFIVHNELEDGWMWVTNLRTDEQGLIVEDLVEEVGR,-0.124 ± 0.031
7,RRRVRAILPYTKVPDTDEISFGKGDMFIVHNELEDGWMWVTNLRTDEQGLIVEDLVEEVGR,-0.229 ± 0.034
8,RRRVRAILPYTKVPDTDEISFPKGDMFIVHNELEDGWMWVTNLRTDEQGLIVEDLVEEVGR,-1.15 ± 0.19
9,RRRVRAILPYTKVPDTDEISFAKGDMFIVHNELEDGWMWVTNLRTDEQGLIVEDLVEEVGR,-0.095 ± 0.042
10,RRRVRAILPYTKVPDTDEISFQKGDMFIVHNELEDGWMWVTNLRTDEQGLIVEDLVEEVGR,0.045 ± 0.13
11,RRRVRAILPYTKVPDTDEISFMKGDMFIVHNELEDGWMWVTNLRTDEQGLIVEDLVEEVGR,-0.054 ± 0.062
12,RRRVRAILPYTKVPDTDEISFEKGDMFIVHNELEDGWMWVTNLRTDEQGLIVEDLVEEVGR,0.006 ± 0.083
13,RRRVRAILPYTKVPDTDEISFIKGDMFIVHNELEDGWMWVTNLRTDEQGLIVEDLVEEVGR,0.001 ± 0.033
14,RRRVRAILPYTKVPDTDEISFSKGDMFIVHNELEDGWMWVTNLRTDEQGLIVEDLVEEVGR,-0.108 ± 0.029
15,RRRVRAILPYTKVPDTDEISGLKGDMFIVHNELEDGWMWVTNLRTDEQGLIVEDLVEEVGR,-0.914 ± 0.029
16,RRRVRAILPYTKVPDTDEISNLKGDMFIVHNELEDGWMWVTNLRTDEQGLIVEDLVEEVGR,-0.83 ± 0.03
17,RRRVRAILPYTKVPDTDEISVLKGDMFIVHNELEDGWMWVTNLRTDEQGLIVEDLVEEVGR,-0.478 ± 0.021
18,RRRVRAILPYTKVPDTDEISDLKGDMFIVHNELEDGWMWVTNLRTDEQGLIVEDLVEEVGR,-0.862 ± 0.03
19,RRRVRAILPYTKVPDTDEISSLKGDMFIVHNELEDGWMWVTNLRTDEQGLIVEDLVEEVGR,-0.908 ± 0.028
20,RRRVRAILPYTKVPDTDEISELKGDMFIVHNELEDGWMWVTNLRTDEQGLIVEDLVEEVGR,-0.866 ± 0.063
21,RRRVRAILPYTKVPDTDEISWLKGDMFIVHNELEDGWMWVTNLRTDEQGLIVEDLVEEVGR,-0.92 ± 0.068
22,RRRVRAILPYTKVPDTDEISYLKGDMFIVHNELEDGWMWVTNLRTDEQGLIVEDLVEEVGR,-0.091 ± 0.021

row,Variant,abundance fitness
1,RRRVRAILPYTKVPDTDEISPLKGDMFIVHNELEDGWMWVTNLRTDEQGLIVEDLVEEVGR,-0.939 ± 0.05
2,RRRVRAILPYTKVPDTDEISILKGDMFIVHNELEDGWMWVTNLRTDEQGLIVEDLVEEVGR,-0.568 ± 0.024
3,RRRVRAILPYTKVPDTDEISCLKGDMFIVHNELEDGWMWVTNLRTDEQGLIVEDLVEEVGR,-0.101 ± 0.021
4,RRRVRAILPYTKVPDTDEISTLKGDMFIVHNELEDGWMWVTNLRTDEQGLIVEDLVEEVGR,-0.907 ± 0.038
5,RRRVRAILPYTKVPDTDEISMLKGDMFIVHNELEDGWMWVTNLRTDEQGLIVEDLVEEVGR,-0.538 ± 0.039
6,RRRVRAILPYTKVPDTDEISQLKGDMFIVHNELEDGWMWVTNLRTDEQGLIVEDLVEEVGR,-0.74 ± 0.068
7,RRRVRAILPYTKVPDTDEISKLKGDMFIVHNELEDGWMWVTNLRTDEQGLIVEDLVEEVGR,-0.988 ± 0.081
8,RRRVRAILPYTKVPDTDEISRLKGDMFIVHNELEDGWMWVTNLRTDEQGLIVEDLVEEVGR,-0.855 ± 0.031
9,RRRVRAILPYTKVPDTDEISHLKGDMFIVHNELEDGWMWVTNLRTDEQGLIVEDLVEEVGR,-0.84 ± 0.036
10,RRRVRAILPYTKVPDTDEILFLKGDMFIVHNELEDGWMWVTNLRTDEQGLIVEDLVEEVGR,-1.07 ± 0.095
11,RRRVRAILPYTKVPDTDEIMFLKGDMFIVHNELEDGWMWVTNLRTDEQGLIVEDLVEEVGR,-1.09 ± 0.2
12,RRRVRAILPYTKVPDTDEIAFLKGDMFIVHNELEDGWMWVTNLRTDEQGLIVEDLVEEVGR,-0.669 ± 0.053
13,RRRVRAILPYTKVPDTDEIQFLKGDMFIVHNELEDGWMWVTNLRTDEQGLIVEDLVEEVGR,-0.828 ± 0.13
14,RRRVRAILPYTKVPDTDEITFLKGDMFIVHNELEDGWMWVTNLRTDEQGLIVEDLVEEVGR,-0.171 ± 0.035
15,RRRVRAILPYTKVPDTDEINFLKGDMFIVHNELEDGWMWVTNLRTDEQGLIVEDLVEEVGR,-0.14 ± 0.03
16,RRRVRAILPYTKVPDTDEIKFLKGDMFIVHNELEDGWMWVTNLRTDEQGLIVEDLVEEVGR,-0.853 ± 0.12
17,RRRVRAILPYTKVPDTDEIHFLKGDMFIVHNELEDGWMWVTNLRTDEQGLIVEDLVEEVGR,-0.977 ± 0.08
18,RRRVRAILPYTKVPDTDEIWFLKGDMFIVHNELEDGWMWVTNLRTDEQGLIVEDLVEEVGR,-0.511 ± 0.1
19,RRRVRAILPYTKVPDTDEIVFLKGDMFIVHNELEDGWMWVTNLRTDEQGLIVEDLVEEVGR,-0.972 ± 0.057
20,RRRVRAILPYTKVPDTDEIFFLKGDMFIVHNELEDGWMWVTNLRTDEQGLIVEDLVEEVGR,-0.877 ± 0.067
21,RRRVRAILPYTKVPDTDEICFLKGDMFIVHNELEDGWMWVTNLRTDEQGLIVEDLVEEVGR,-0.318 ± 0.029
22,RRRVRAILPYTKVPDTDEIIFLKGDMFIVHNELEDGWMWVTNLRTDEQGLIVEDLVEEVGR,-0.844 ± 0.053

row,Variant,abundance fitness
1,RRRVRAILPYTKVPDTDEIGFLKGDMFIVHNELEDGWMWVTNLRTDEQGLIVEDLVEEVGR,-0.386 ± 0.028
2,RRRVRAILPYTKVPDTDEIPFLKGDMFIVHNELEDGWMWVTNLRTDEQGLIVEDLVEEVGR,-0.639 ± 0.077
3,RRRVRAILPYTKVPDTDEIDFLKGDMFIVHNELEDGWMWVTNLRTDEQGLIVEDLVEEVGR,-0.111 ± 0.029
4,RRRVRAILPYTKVPDTDEIEFLKGDMFIVHNELEDGWMWVTNLRTDEQGLIVEDLVEEVGR,-0.641 ± 0.08
5,RRRVRAILPYTKVPDTDEIYFLKGDMFIVHNELEDGWMWVTNLRTDEQGLIVEDLVEEVGR,-0.881 ± 0.063
6,RRRVRAILPYTKVPDTDPISFLKGDMFIVHNELEDGWMWVTNLRTDEQGLIVEDLVEEVGR,-1.04 ± 0.12
7,RRRVRAILPYTKVPDTDTISFLKGDMFIVHNELEDGWMWVTNLRTDEQGLIVEDLVEEVGR,-0.222 ± 0.038
8,RRRVRAILPYTKVPDTDFISFLKGDMFIVHNELEDGWMWVTNLRTDEQGLIVEDLVEEVGR,-0.498 ± 0.036
9,RRRVRAILPYTKVPDTDLISFLKGDMFIVHNELEDGWMWVTNLRTDEQGLIVEDLVEEVGR,-0.35 ± 0.039
10,RRRVRAILPYTKVPDTDGISFLKGDMFIVHNELEDGWMWVTNLRTDEQGLIVEDLVEEVGR,-0.507 ± 0.031
11,RRRVRAILPYTKVPDTDKISFLKGDMFIVHNELEDGWMWVTNLRTDEQGLIVEDLVEEVGR,-0.457 ± 0.11
12,RRRVRAILPYTKVPDTDNISFLKGDMFIVHNELEDGWMWVTNLRTDEQGLIVEDLVEEVGR,-0.809 ± 0.051
13,RRRVRAILPYTKVPDTDIISFLKGDMFIVHNELEDGWMWVTNLRTDEQGLIVEDLVEEVGR,-0.35 ± 0.036
14,RRRVRAILPYTKVPDTDYISFLKGDMFIVHNELEDGWMWVTNLRTDEQGLIVEDLVEEVGR,-0.513 ± 0.037
15,RRRVRAILPYTKVPDTDRISFLKGDMFIVHNELEDGWMWVTNLRTDEQGLIVEDLVEEVGR,-0.353 ± 0.034
16,RRRVRAILPYTKVPDTDWISFLKGDMFIVHNELEDGWMWVTNLRTDEQGLIVEDLVEEVGR,-1.28 ± 0.29
17,RRRVRAILPYTKVPDTDQISFLKGDMFIVHNELEDGWMWVTNLRTDEQGLIVEDLVEEVGR,0.047 ± 0.089
18,RRRVRAILPYTKVPDTDVISFLKGDMFIVHNELEDGWMWVTNLRTDEQGLIVEDLVEEVGR,-0.369 ± 0.029
19,RRRVRAILPYTKVPDTDHISFLKGDMFIVHNELEDGWMWVTNLRTDEQGLIVEDLVEEVGR,-0.452 ± 0.041
20,RRRVRAILPYTKVPDTDMISFLKGDMFIVHNELEDGWMWVTNLRTDEQGLIVEDLVEEVGR,-0.42 ± 0.082
21,RRRVRAILPYTKVPDTDCISFLKGDMFIVHNELEDGWMWVTNLRTDEQGLIVEDLVEEVGR,-0.341 ± 0.03
